{"source": "patent US20060067940A1", "about": "(WASHINGTON UNIVERSITY, published 2006)", "molecular_target": "T1, WNV E protein on virions of WNV New York strain (lineage I) (West Nile virus (New York strain), UniProt Q9Q6P4 291-791)", "T1 sequence (looked up)": "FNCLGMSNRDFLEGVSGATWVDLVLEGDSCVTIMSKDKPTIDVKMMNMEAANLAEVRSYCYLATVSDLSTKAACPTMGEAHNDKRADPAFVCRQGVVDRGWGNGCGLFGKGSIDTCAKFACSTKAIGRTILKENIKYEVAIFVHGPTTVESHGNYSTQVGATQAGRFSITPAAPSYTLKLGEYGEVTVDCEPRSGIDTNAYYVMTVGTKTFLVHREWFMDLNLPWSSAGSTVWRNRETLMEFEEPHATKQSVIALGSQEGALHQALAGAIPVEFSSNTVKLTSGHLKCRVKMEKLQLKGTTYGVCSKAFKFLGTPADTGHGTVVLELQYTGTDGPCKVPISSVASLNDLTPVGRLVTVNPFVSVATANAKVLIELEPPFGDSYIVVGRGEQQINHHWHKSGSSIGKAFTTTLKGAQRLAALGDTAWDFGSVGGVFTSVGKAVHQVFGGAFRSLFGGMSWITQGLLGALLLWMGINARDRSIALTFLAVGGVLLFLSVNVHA", "assay": "cell-based or functional assay", "data": [{"binder": "WNV E16 (monoclonal antibody produced by hybridoma clone E16 C4 E4, ATCC PTA-6050) (antibody, V domains shown) VH: QVQLQQSGSELMKPGASVQISCKATGYTFSDYWIEWVKQRPGHGLEWIGDILCGTGRTRYNEKLKAMATFTADTSSNTAFMQLSSLTSEDSAVYYCARSASYGDYADYWGHGTTLTVSS VL: DIVMTQSHKFMSTSVGDRVSITCKASQDVSTAVAWYQQKPGQSPKLLISWASTRHTGVPDRFTGSGSGTDYTLTISSVQAEDLALYYCQQHYTTPLTFGAGTKLELK", "values": [{"measurement": "PRNT assay, potency against human γ-globulin preparation", "result": "~1000", "unit": "fold"}]}]}
